Measured values reported in US11732043.
Read-outs that look alike come from different tables or passages of the source.

What was measured:
[1] = molecular target: human LAG-3 (huLAG-3), full length, expressed on the cell surface (human) (UniProt P18627)
[2] = molecular target: human LAG-3 (huLAG-3), full length, expressed on the cell surface (human) (UniProt P18627); assay: method of determination not stated; legend of the FACS binding figure (293FF-LAG-3 cells, activated human T-cells)
[3] = molecular target: human LAG-3 (huLAG-3), full length, expressed on the cell surface (human) (UniProt P18627); assay: FACS titration on activated human T cells, detection with PE-labelled anti-IgG F(ab')2 [right panel Activated T cells]
[4] = molecular target: human LAG-3 (huLAG-3), full length, expressed on the cell surface (human) (UniProt P18627); remark: listed apart in the source

Sequence of human LAG-3 (huLAG-3), full length, expressed on the cell surface (human) (P18627 23-525): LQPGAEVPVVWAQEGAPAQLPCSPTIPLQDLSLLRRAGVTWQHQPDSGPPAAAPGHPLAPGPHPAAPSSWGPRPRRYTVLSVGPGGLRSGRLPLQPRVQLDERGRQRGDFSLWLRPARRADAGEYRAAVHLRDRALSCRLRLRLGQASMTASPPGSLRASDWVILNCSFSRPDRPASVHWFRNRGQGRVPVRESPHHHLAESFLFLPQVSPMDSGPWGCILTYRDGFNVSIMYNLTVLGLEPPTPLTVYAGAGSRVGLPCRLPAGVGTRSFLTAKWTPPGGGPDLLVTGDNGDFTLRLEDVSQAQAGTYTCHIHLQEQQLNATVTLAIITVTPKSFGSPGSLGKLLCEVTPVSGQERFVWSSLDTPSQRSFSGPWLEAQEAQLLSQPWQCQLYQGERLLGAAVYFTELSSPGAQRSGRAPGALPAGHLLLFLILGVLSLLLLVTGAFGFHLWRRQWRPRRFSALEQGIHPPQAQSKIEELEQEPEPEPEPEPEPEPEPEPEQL

EC50 (read off the curve) [1]: 0.1 µg/mL | Kd [2]: 0.2 nM | EC50 (read off the curve) [3]: 0.04 µg/mL | EC50 (read off the curve) [4]: 0.1 µg/mL
Substance: PG7431, anti-LAG-3 antibody 25F7 produced in a human IgG1 format
